Experimental data reported in the supplement of paper PMC10567573.
± gives the standard deviation.

Assay: protein stability index of a GFP-peptide fusion (GPS, HEK-293T) (PSI 1-6); higher = more stable
Settings: c terminus: a fixed tail appended
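Further: 24-mer peptide tiles fused after GFP, lentivirally expressed, FACS-sorted into six equal bins by GFP/DsRed ratio, decoded by Illumina sequencing, PSI is the read-weighted mean bin number.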

Sequence	protein stability index (treatment: DMSO)	protein stability index (treatment: MLN4924 1 uM, 8 h)
IKIFKYISFNKTMTQLSSTLARCA [PKD2L1]	2.37 ± 0.15	2.26 ± 0.19
IKIRPGEFEQFESTIGFKLPNHRA [EPB41L3]	2.64 ± 0.03	2.75 ± 0.63
IKLIDFGIAHKIEAGNEFKNIFGT [DAPK3]	2.47 ± 0.31	2.32 ± 0.21
IKMMQAVRQAFQDQDDRRTWDGRP [GFOD1]	3.21 ± 0.26	3.6 ± 0.19
IKSIVEASKGCQLGKTEQGFENMD [TRIM63]	4.54 ± 0.31	4.38 ± 0.33
ILALELICSLICLLIYTVKIRRFN [TMEM192]	3.42 ± 0.29	3.2 ± 0.41
IMNIEPAILVMHHSMKPHPAITAT [INTS3]	2.24 ± 0.38	2.22 ± 0.16
IPLYPLGCLAEAVSVIQSIPIFNE [HACD3]	2.7 ± 0.47	2.97 ± 0.81
IQDLCEMLGKYGSSLEFTELLTLV [CASP6]	2.34 ± 0.34	2.15 ± 0.26
IQENQRNLYEEGRTAFLWRGNVVL [TRIM43]	2.21 ± 0.43	2.61 ± 0.37
IQKNYECANFGDQGITMGCWDMYR [LOXL2]	2.06 ± 0.45	2.13 ± 0.25
IRDLDVVVVSVAGAFRKGKSFILD [ATL3]	2.3 ± 0.64	2.34 ± 0.45
IRQEFDKLREFLRVEEQAILDAMA [TRIM35]	2.91 ± 0.31	2.97 ± 0.69
IRTKLNYNPPKDDGSTYKIELEGI [GAN]	2.76 ± 0.1	2.84 ± 0.39
IRTSERVTLIVDNTRFVVDPSIFT [BTBD10]	2.35 ± 0.41	2.36 ± 0.45
ISDNPERYSTNLSNHVDDFTTFRG [EDNRA]	3.87 ± 0.34	3.95 ± 0.42
ISRKLGDMRNSATFKSFEDRVGTI [TPD52L2]	2.98 ± 0.22	3.07 ± 0.24
ISTSGQAGTSSHGCWAWPLAGLSV [PXN]	2.33 ± 0.47	2.25 ± 0.26
ISVEGINHDIRTANDGDYWRLLNP [CPXM2]	2.64 ± 0.44	2.7 ± 0.44
ITDSYPVVKRREGPAGHSKGELAP [POLD4]	3.42 ± 0.47	4.21 ± 0.45
ITERDKRPEGYNLKDEEGKLKDLS [PPP2R2C]	5.51 ± 0.23	5.54 ± 0.13
ITNTDVDCLKACQEQIEAVLLNSL [CCND2]	2.73 ± 0.2	2.86 ± 0.39

Sequence	protein stability index (treatment: DMSO)	protein stability index (treatment: MLN4924 1 uM, 8 h)
ITPQGVAMRAGVLADDHLIEVNGE [PDZK1]	4.72 ± 0.095	4.78 ± 0.22
IYEFWENSSVWNSHLQTNYSKTFQ [NECAB1]	2.28 ± 0.31	2.16 ± 0.26
IYSLRNKEFKSALCKIVRRTISLL [OR10K2]	2.74 ± 1.2	2.17 ± 0.49
KADTKGFCNISLFEDLPLQEPQSP [PLAGL1]	4.46 ± 0.14	4.61 ± 0.12
KAIKQKLWEALCSQGAISEGAQRD [C22orf31]	2.72 ± 0.27	2.85 ± 0.065
KCSDCGKAFLTKTMLIVHHRTHTG [ZNF649]	2.84 ± 0.27	3.05 ± 0.45
KDIAHFWELGGGTSLLDLISIPIT [DYNC2LI1]	2.54 ± 0.54	2.07 ± 0.24
KDSVMQQNLVYYRFHRARWGLEEE [P3H4]	2.51 ± 0.28	2.43 ± 0.085
KDVRAPSRPAVGPPQPGCPAFIIV [ZSWIM9]	2.23 ± 0.75	2.43 ± 0.6
KEEEQSCEYETRLPGNHSTSQEIF [ZNF232]	5.02 ± 0.3	5 ± 0.13
KEEGTVNGASWHTVAGSLNDFSYL [CPXM2]	3.35 ± 0.53	3.33 ± 0.34
KEGPMIHSGSVVGAGLPQFQSISL [CLCN6]	2.91 ± 0.12	2.86 ± 0.35
KEHAVTMPCTWVMACAYAPSGCAI [GNB5]	2.8 ± 0.36	2.49 ± 0.59
KENQDIRLLQAQLQAQKEELQSLM [PBXIP1]	4.05 ± 0.12	4.14 ± 0.22
KEQAIWKHPQPAPAVTPDPWGVQG [PKD2L1]	3.75 ± 0.22	4.07 ± 0.31
KGCLKLCRRCYDWIHRPGCRCKNS [SPRY1]	3.04 ± 0.2	3.46 ± 0.2
KGGLVWDENSSDGRYVKENCKPLK [CLK3]	4.53 ± 0.098	4.82 ± 0.12
KGKYNISSEDYRQLELVILQSEPH [KCNK9]	2.87 ± 0.28	2.93 ± 0.29
KHFLEAIENNKYGWFWVCPGGGDI [ZC3H15]	2.8 ± 0.4	2.43 ± 0.39
KIWRTPNGKTIEMDTQFTIRAREL [IQUB]	2.55 ± 0.24	2.66 ± 0.19
KKEQRRLGIPKNPWLWSEQQVCQW [ETS2]	2.12 ± 0.18	2.43 ± 0.43
KKPPEESTCFERPCFKWYTSPWSE [ADAMTSL2]	2.67 ± 0.14	2.88 ± 0.42

Sequence	protein stability index (treatment: DMSO)	protein stability index (treatment: MLN4924 1 uM, 8 h)
KKSELLQRITQEQEKKLSFIEALI [TRIM63]	2.07 ± 0.3	2.41 ± 0.35
KKTCRRINYCALNKPGCEHECVNM [MATN2]	2.8 ± 0.38	2.95 ± 0.74
KLEISTKEVPVVHTETKTITYESS [EPB41L3]	4.83 ± 0.14	4.64 ± 1
KLGLGIDEDEVAAEEPNAAVPDEI [HSP90AB1]	5.8 ± 0.18	5.48 ± 0.24
KLTDFGFAKKLVDRTWTLCGTPEY [PRKX]	2.12 ± 0.11	2.27 ± 0.23
KLTKESYPVVVAESMYGDFQEAMT [TENT5D]	3.16 ± 0.2	3.41 ± 0.37
KMAVSRHLTRGRKMAHVIAACLYL [BRF1]	2.81 ± 0.37	2.6 ± 0.56
KMKGFGFWPAKVMQKEDNQVDVRF [ZMYND11]	3.11 ± 0.39	3.11 ± 0.34
KMKKLGQAMEEDLIVGLQGMDLNL [HDAC6]	3.86 ± 0.24	3.5 ± 0.43
KMLGNPSRLPAKCPGKGAWSIPWK [FKBP8]	2.08 ± 0.26	2.25 ± 0.23
KMLSKAVDALKSDKKVRTIIIRSE [AUH]	1.81 ± 0.26	2 ± 0.6
KNANRPLLDEIVPVYRRDCHEEVY [ACBD3]	3.88 ± 0.1	3.74 ± 0.15
KNDGRIDAQEIMQSLRDLGVKISE [SLC25A25]	3.19 ± 0.21	3.29 ± 0.27
KNLLHAEFLRVQEERILHQQVKCI [VPS39]	2.58 ± 0.16	2.71 ± 0.26
KPEAPLHLPVTFPGKDYDADRQCQ [ADAMTS4]	5.05 ± 0.15	5.13 ± 0.22
KPFVSVFRHLRLQYIISDLASARI [GMCL1]	3.07 ± 0.69	2.78 ± 0.85
KPWDFPSVHNDLWESWFVPDPAGI [GLT8D2]	2.96 ± 0.38	2.69 ± 0.16
KPYDPPGEKMVAAKVKGEKLDKKL [ATF4]	5.12 ± 0.21	5.12 ± 0.056
KQTQCPADPLQLNKALSIILHLIC [FEM1C]	1.91 ± 0.17	2.21 ± 0.39
KRRPKAQPTTLVLPPQYVDDVISR [MED27]	4.03 ± 0.12	4.06 ± 0.17
KRVYEEFTKVVQPQEEIATKKLRL [INTS4]	3.31 ± 0.33	3.86 ± 0.36
